Test results published in paper PMC3258846 (Molecular Cell, 2011).

Legend:
[1] = target: GST-ASCC3-C (human, UniProt Q8N3C0 1301-2202); experiment: pull-down
[2] = target: GST-ASCC3-B (human, UniProt Q8N3C0 401-1300); experiment: pull-down
Sequence of GST-ASCC3-B (Q8N3C0 401-1300): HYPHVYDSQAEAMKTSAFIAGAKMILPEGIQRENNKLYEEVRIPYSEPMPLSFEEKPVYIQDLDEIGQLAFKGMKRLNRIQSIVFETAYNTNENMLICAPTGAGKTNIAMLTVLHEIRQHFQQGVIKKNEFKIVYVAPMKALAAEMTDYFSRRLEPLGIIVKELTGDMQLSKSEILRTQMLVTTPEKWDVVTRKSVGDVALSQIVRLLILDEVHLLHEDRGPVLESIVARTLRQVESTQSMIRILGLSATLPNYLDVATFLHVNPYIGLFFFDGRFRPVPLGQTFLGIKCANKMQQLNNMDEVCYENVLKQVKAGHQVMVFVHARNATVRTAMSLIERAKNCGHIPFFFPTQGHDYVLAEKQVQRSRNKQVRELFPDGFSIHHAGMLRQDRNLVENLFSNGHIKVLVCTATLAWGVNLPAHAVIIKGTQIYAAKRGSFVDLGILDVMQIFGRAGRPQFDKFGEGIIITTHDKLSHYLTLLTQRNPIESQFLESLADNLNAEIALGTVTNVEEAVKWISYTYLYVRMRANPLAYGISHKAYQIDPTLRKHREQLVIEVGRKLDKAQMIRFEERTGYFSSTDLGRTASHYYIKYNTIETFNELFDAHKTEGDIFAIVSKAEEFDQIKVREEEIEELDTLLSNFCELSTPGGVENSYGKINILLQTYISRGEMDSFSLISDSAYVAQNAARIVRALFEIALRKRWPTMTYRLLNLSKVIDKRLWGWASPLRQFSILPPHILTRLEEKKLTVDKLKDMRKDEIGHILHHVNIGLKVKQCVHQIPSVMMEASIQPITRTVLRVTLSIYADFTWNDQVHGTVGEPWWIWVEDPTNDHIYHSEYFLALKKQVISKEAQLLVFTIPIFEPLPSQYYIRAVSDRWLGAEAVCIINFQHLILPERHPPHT

Sequence of GST-ASCC3-C (Q8N3C0 1301-2202): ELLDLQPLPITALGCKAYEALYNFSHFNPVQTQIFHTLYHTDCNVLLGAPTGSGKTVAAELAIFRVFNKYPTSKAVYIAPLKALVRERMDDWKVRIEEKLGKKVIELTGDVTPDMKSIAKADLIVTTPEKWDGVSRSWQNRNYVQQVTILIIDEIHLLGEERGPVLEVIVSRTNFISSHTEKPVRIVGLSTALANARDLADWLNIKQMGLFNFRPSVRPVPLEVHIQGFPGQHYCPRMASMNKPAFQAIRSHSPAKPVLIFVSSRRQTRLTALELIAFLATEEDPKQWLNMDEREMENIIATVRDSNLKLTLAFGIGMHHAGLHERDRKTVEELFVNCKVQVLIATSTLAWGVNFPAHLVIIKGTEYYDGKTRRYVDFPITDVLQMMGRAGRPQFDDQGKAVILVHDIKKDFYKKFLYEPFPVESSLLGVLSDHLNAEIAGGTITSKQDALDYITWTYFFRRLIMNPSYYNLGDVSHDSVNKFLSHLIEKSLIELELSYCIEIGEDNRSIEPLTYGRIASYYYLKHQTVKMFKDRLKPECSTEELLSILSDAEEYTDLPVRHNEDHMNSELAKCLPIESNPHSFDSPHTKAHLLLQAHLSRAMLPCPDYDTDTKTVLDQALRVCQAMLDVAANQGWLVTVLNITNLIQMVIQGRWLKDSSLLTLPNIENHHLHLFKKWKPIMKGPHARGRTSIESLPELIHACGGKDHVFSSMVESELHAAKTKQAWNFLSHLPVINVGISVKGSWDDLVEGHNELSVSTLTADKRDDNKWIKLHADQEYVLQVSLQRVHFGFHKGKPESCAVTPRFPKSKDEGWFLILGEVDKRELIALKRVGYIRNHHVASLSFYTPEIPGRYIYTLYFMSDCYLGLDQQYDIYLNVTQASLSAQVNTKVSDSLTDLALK

binding result [1]: binds | binding result [2]: binds
B1: His6-ALKBH3 (enzyme, human, UniProt Q96Q83 1-286, looked up)
chain: MEEKRRRARVQGAWAAPVKSQAIAQPATTAKSHLHQKPGQTWKNKEHHLSDREFVFKEPQQVVRRAPEPRVIDREGVYEISLSPTGVSRVCLYPGFVDVKEADWILEQLCQDVPWKQRTGIREDITYQQPRLTAWYGELPYTYSRITMEPNPHWHPVLRTLKNRIEENTGHTFNSLLCNLYRNEKDSVDWHSDDEPSLGRCPIIASLSFGATRTFEMRKKPPPEENGDYTYVERVKIPLDHGTLLIMEGATQADWQHRVPKEYHSREPRVNLTFRTVYPDPRGAPW
